The results in this text go back to paper PMC10063554.

The target in assay [1] is evolved PTH1R variant P34_05 (human) (UniProt Q03431). The assay is described as follows: AlphaScreen or HTRF; binding of 40 nM M-PTH(1–14) to membrane fractions supplemented with increasing concentrations of mini-Gs; data relative to PTH1R without mini-Gs; EC50 of mini-Gs read through ligand occupancy, apparent.
Assay [2] has as its target evolved PTH1R variant P34_13 (human) (UniProt Q03431). The assay is described as above.
Assay [3] concerns the target SNAP-tagged NTR1-R167L (rat) (UniProt P20789). Kind of assay: AlphaScreen or HTRF; whole HEK293T cells with SNAP-Lumi4-Tb-labelled NTR1; 2 nM HL488-NT(8–13) tracer with a range of unlabeled NT(8–13); 4 h on ice; 20 mM HEPES pH 7.5, 100 mM NaCl, 3 mM MgCl2, 0.02% BSA.
Sequence of UniProt P20789 (P20789 43-424 R167L): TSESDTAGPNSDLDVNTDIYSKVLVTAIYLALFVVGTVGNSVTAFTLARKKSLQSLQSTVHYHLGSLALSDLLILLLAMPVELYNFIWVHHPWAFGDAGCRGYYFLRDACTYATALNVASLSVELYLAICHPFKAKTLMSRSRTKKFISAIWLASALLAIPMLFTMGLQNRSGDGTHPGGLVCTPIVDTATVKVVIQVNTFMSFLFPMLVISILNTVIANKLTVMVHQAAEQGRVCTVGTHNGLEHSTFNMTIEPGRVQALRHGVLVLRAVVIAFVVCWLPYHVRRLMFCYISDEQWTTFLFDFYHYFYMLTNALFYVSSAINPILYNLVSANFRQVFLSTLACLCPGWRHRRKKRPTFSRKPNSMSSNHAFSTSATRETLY

Broadly, the EC50 is the concentration at which the effect is half-maximal. Mini-Gs 393: the EC50 in assay [1] came out at 0.28 µM; in assay [2], 0.38 µM.
In assay [3], Neurotensin 8–13 (peptide) came in with a fold increase in affinity against wild-type NTR1 of 3 fold.
